# Measured values published in PMC2818519 (Journal of structural biology, 2009).
# B1: SUR2A nucleotide binding domain 1 (NBD1, D666-890) (domain or fragment, murine, UniProt P70170-1 666-890, looked up)
# chain: DIAIKVTNGYFSWGSGLATLSNIDIRIPTGQLTMIVGQVGCGKSSLLLAILGEMQTLEGKVYWNNVNESEPSFEATRSRSRYSVAYAAQKPWLLNATVEENITFGSPFNRQRYKAVTDACSLQPDIDLLPFGDQTEIGERGINLSGGQRQRICVARALYQNTNIVFLDDPFSALDIHLSDHLMQEGILKFLQDDKRTVVLVTHKLQYLTHADWIIAMKDGSVLRE
# Assays:
# [1] = molecular target: SUR2A nucleotide binding domain 2 (NBD2, G1301-K1546) (murine); experiment: SAXS
# SAXS = molecular target: the molecule itself; experiment: SAXS
Molecule,stoichiometry N [1],stoichiometry N (SAXS)
"SUR2A nucleotide binding domain 2 (NBD2, G1301-K1546) (domain or fragment)",8,–
B1,–,8
